The experiment deals with VP16-PYLcs (VP16 transactivation domain fused to PYL1 aa 33-209) (herpes simplex virus; Arabidopsis thaliana) (UniProt Q8VZS8). In words: cell-based or functional assay.
VP16-PYLcs (VP16 transactivation domain fused to PYL1 aa 33-209) (herpes simplex virus; Arabidopsis thaliana), sequence (Q8VZS8 33-209 limits assumed): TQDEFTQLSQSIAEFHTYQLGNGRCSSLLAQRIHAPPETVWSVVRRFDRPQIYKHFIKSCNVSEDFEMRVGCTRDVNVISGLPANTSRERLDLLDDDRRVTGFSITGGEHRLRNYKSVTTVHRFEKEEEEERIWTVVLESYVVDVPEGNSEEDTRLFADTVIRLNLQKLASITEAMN

“Gal4 DBD-ABIcs, wild type (Gal4 DNA binding domain fused to ABI1 aa 126-423) (from UniProt P04386 1-147)” gave a luciferase production (UAS-luciferase reporter, murine ES, NIH 3T3 and HEK 293T cells) of 1000 fold.

These data come from patent publication US20130158098A1, “Alkenyl Substituted Cycloaliphatic Compounds as Chemical Inducers of Proximity” (priority 2010, published 2013).
